In the supplement of paper PMC9170038:

Test system: MS2 coat protein
Experiment: apparent KD of MS2 coat protein; designed switch direction (-1 OFF switch, 1 ON switch): -1; higher = weaker reporter binding
Method in brief: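 Designed RNA switches sharing common flanks were transcribed on Illumina chips by stalled E. coli RNA polymerase. They were titrated with SNAP-549-labelled MS2 coat protein, from 0.7 or 1.5 nM doubling to 3 µM, in Tris-HCl pH 7.5 buffer with KCl, MgCl2, BSA, DTT, tRNA and Tween-20. Titrations ran without input, with 200 uM small-molecule ligand, or with an oligonucleotide input. The apparent KD of each design is the median over its clusters, after curve-fitting of normalised cluster fluorescence.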

[1] = Eterna round: R95, input ligand: FMN 200 uM
[2] = Eterna round: R95, input ligand: microRNA oligo, concentration not stated
[3] = Eterna round: R95, input ligand: none
[4] = input ligand: microRNA oligo, concentration not stated

| Sequence | apparent KD of MS2 coat protein [1] [nM] | apparent KD of MS2 coat protein [2] [nM] | apparent KD of MS2 coat protein [3] [nM] | apparent KD of MS2 coat protein (input ligand: FMN 200 uM) [nM] | apparent KD of MS2 coat protein [4] [nM] | apparent KD of MS2 coat protein (input ligand: none) [nM] |
| --- | --- | --- | --- | --- | --- | --- |
| GAUUGACAUGAGGAUCACCCAUGUGAGGAUAUCGGCUGGACCGUGUUGGCUUGGCUUUCGAGAAGGCGCAUAGG [Exclusion 1 V47] (puzzle: Exclusion 1) | 53.9 | 42.6 | 53.7 |  |  |  |
| CAUGAUUGGGAAGGAUAUUGACCUAGUUAGUGCCGAGAAGGUCCCUUUCACAUGAGGAUCACCCAUGUGAGUCUGGUGUUCGAG [Ex NG1 #97] (Eterna round: R96, puzzle: Exclusion NG 1) |  |  |  | 43.1 | 23.7 | 30.5 |
| CGUACUGAAGUCAGGAUAUUGUCUCGGAUACGAAACAAGAAGGGACAUGAGGAUCACCCAUGUAGACAGUACGA [Malc #30 mod 3] (puzzle: Brourd's mod of Exclusion 4) | 19.3 | 20.5 | 24.9 |  |  |  |
| ACAUGAGGAUCACCCAUGUCGAGUACAUGAGGAUCACCCAUGUAGGAUAUGGUUCGCUUUGCGUGCUAGAAGGAUAUAUGUUGA [salish99_ExNG3_r04_511] (Eterna round: R96, puzzle: Exclusion NG 3) |  |  |  | 780 | 297 | 457 |
| UGUUGUCGCGUAGGAUAUGGCCAACAGGCCGUAGGAUAUGGGAAACCAGAAGGACCGCCAACAGGCGAGAAGGACGGGACAACU [pwkr exNG2 2xF7 2xFMN.21] (Eterna round: R96, puzzle: Exclusion NG 2) |  |  |  | 127 | 49.4 | 72 |
| ACAUGAGGAUCACCCAUGUUUGGCUGGUUCUCUCCGGCUGUUGAGGAUAUAGUCCGGUAUCCGCGCUAGAAGGUGAGGGCUGGC [Aenatbe mod 7] (Eterna round: R96, puzzle: Exclusion NG 3) |  |  |  | 13.5 | 15.8 | 24.2 |
| AAAGUGCUGCGAGGAUAUACAUGAGGAUCACCCAUGUGGAUGUCUGAGGCAAAGCCUCAGACAAUGUAGAAGGCGCAGUACUAA [Mat - Exclusion NG 2 - Mod of JL - D56] (Eterna round: R96, puzzle: Exclusion NG 2) |  |  |  | 87.3 | 18.2 | 27 |
| GACCUCACGGUCAGGAUAUCAGAACGUAAUGCGCAUGAGAAGGGACAUGAGGAUCACCCAUGUGGGCUCGUCGC [Maedvequ] (puzzle: Brourd's mod of Exclusion 4) |  | 11.8 |  |  |  |  |
| CUGAUGUGAGGAUAUGUGAUCUGCCUUCUAUAUAGAUGAUUACAGAAGGCACAUGAGGAUCACCCAUGUAGAUC [Ex4 - 3 - 25] (puzzle: Exclusion 4) |  | 51.8 |  |  |  |  |
| AGAAGUAGCAACCGAUCCUACAUGAGGAUCACCCAUGUAGCAAGACGUGCACGCGAAGCUCGUCAGACUACCAGAUG [salish99_TOv1_r3_022] (puzzle: Sensor v3, turn-off variant 1) | 216 | 210 | 168 |  |  |  |
| GUGUACGGAGGAUAUAUGUGGGCAGCAUACGCUGCAGCUUCACAUGAGGAUCACCCAUGUAGAAGGCUGUGCAC [JL-ex2-2.11 Brourd mod] (puzzle: Exclusion 2) |  | 20.1 |  |  |  |  |
| UAUGACUGAGGAUAUUGUACUGCUGACAUGAGGAUCACCCAUGUAUGCUAACUCGGCCGUCGAGAAGGCAGUUAUG [BotMod 26 - Jieux - Exclusion 5] (Eterna round: R97, puzzle: Exclusion 5) |  |  |  | 16.5 |  | 52 |
| GCAUUCUGAGGAUAUACAUGAGGAUCACCCAUGUUGAGAAAUAAGAAUAAGUACUUAAGUAGAAGGCAGAGUGC [JR_Ex3_Sub074] (Eterna round: R97, puzzle: Exclusion 3) |  |  |  | 61.6 |  | 15.8 |
| AUCCUUAACAAGGAUAUCGGGCGGGUUUUUGUUUGAGAAGGUGUGACAUGAGGAUCACCCAUGUGGCGCGUGGG [-22, -20.4 kcal, A 22%] (Eterna round: R97, puzzle: Exclusion 6) |  |  |  | 285 |  | 887 |
